Results on one substance are retold here after article PMC2904422.

The target in this assay is myelin and lymphocyte protein 2 (MAL2) (rat (endogenous in WIF-B)) (UniProt Q7TPB7). The experiment in a line: co-IP.

The substance “polymeric immunoglobulin A-receptor (pIgA-R), mature form (from UniProt P15083 19-769)” registered a percent of total pIgA-R coimmunoprecipitated (% of total pIgA-R) of 1.
